This is an account of results in US20070212355A1 (priority 2005, published 2007).

Substitutions are numbered along the chain they refer to. Numbers in names are those of the source.

The conditions of series [1]: background statement; cited from earlier work.
Series [2] relates to CD1 mice. Kind of series: Mucosal wet weight of small intestine after 10 daily subcutaneous injections. The series is classed as in vivo. Conditions: 2.5 mg/kg (13.3 nmole) daily s.c. 10 days; p<0.0001. From the text:
Afterwards, the mice were euthanized and the small intestines were removed, flushed with saline, and processed as described below.
Specifically, 4 cm sections were harvested: (1) immediately distal to the pylorus (duodenum), (2) starting 2 cm distal of the ligament of Treitz (jejunum), and (3) immediately proximal to the cecum (ileum). The remaining small intestine from ˜6 cm distal of the ligament of Treitz to 4 cm proximal to the cecum was used to prepare mucosal scrapings. From the proximal and distal ends of the remnant, an equal distance was removed until a 15 cm section remained, the remnant was cut longitudinally, rinsed, and the mucosal layer was removed using the short end of a glass microscope slide. The wet weight of the intact intestinal segments and mucosa was measured.

A short description of series [3]: SEC-SLS self-association of peptides in PBS (pH 7.5). Type of series: physicochemical. Conditions: 1 mg/ml. As to the method: The self-association poses a challenge to the development and manufacturing of a homogeneous therapeutic.
(§1) Solution molecular weight of the peptides was measured by SEC-SLS. Briefly, peptide solutions in PBS (pH 7.5) at 0.4 to 2.0 mg/mL were fractionated over a Superdex peptide column (Amersham Pharmacia). The eluted peaks were monitored by static light scattering at 690 nm and solution molecular weight was determined at UV 280 nm using the Astra software package (Wyatt Inc.).

Series [4] is described as follows: CD spectra secondary structure of peptides. Type of series: physicochemical. To be noted: 0.2 mg/mL in PBS, 25° C. As to the method:
The secondary structures of tested peptides were determined using 0.2 mg/mL peptide solutions in PBS. Briefly, CD spectra were collected in triplicate at 1 nm intervals at 25° C. in 0.1 cm path length cell. Secondary structures were determined by fitting of the CD spectra using CD spectra software (CD Spectra Deconvolution software 2.1). All tested peptides contained peaks corresponding to the presence of alpha helices.

Series [5] in a line: Helical propensity analysis using TFE (CD at 222 nm). Conditions: 0.2 mg/mL in PBS (pH 7.5), MRE at 222 nm. Type of series: physicochemical. The procedure: In addition, trifluoroethanol (TFE) is known to induce helix formation in peptides (Soennichsen et al., Biochemistry 31: 8791 (1992)). Accordingly, helical propensity analysis using TFE was performed. Briefly, tested peptides were diluted to 0.2 mg/mL in PBS (pH 7.5) containing 0, 1, 5, 15, 33 or 50% TFE. CD spectra were collected and CD plots were generated after data averaging, buffer subtraction and curve smoothing. Helical propensity values were obtained from mean residue ellipticity (MRE) at 222 nm versus % TFE plots. The concentration of TFE that effected a 50% transformation of the CD spectrum at 222 nm was used as a measure of helical propensity.

In series [6] the test system is mice. Briefly: Upper gastrointestinal transit, carmine dye technique, normal mice. The series is classed as in vivo. Conditions: 50 μg/mouse daily s.c. 10 days, 20-minute test period, vs PBS vehicle, FIG. 3. As to the method: To test the effects of A2G-GLP-2 on upper gastrointestinal transit in normal mice, mice were randomly assigned to 2 groups (14 animals per test group). Each group received daily subcutaneous injection (total volume […]) of either A2G-GLP-2 peptide (50 μg/mouse) or the phosphate-buffered saline vehicle for 10 consecutive days.
On the day of study, upper gastrointestinal transit was measured using the carmine dye technique. Mice were fed a test meal of 0.25 ml of a 6% (w/v) solution of carmine cochineal powder mixed into 0.5% (w/v) methylcellulose administered intragastrically by an 18 gauge curved feeding tube. Following oral test meal administration, mice were replaced into their home cages. Twenty minutes after marker meal administration, mice were rapidly euthanized by cervical dislocation and the entire gastrointestinal tract was excised starting from the distal colon and working towards the gastric pylorus. […] The linear distance traversed by the carmine dye front through the small intestine was measured together with the total length of the small bowel. Upper gastrointestinal transit was expressed as the percentage of the entire small intestine traversed by the carmine dye front during the 20-minute test period: % small intestine traveled =[distance traversed by dye front through small intestine (cm)/entire small intestine length (cm)×100].

Series [7] has as its target T1, mutated human GLP-2R (Homo sapiens, UniProt O95838, E512D/G511A/L513V).
T1 construct: expressed in transfected cells; host or cells: HEK 293E clonal cell line
T1 sequence (O95838 1-553 G511A/E512D/L513V): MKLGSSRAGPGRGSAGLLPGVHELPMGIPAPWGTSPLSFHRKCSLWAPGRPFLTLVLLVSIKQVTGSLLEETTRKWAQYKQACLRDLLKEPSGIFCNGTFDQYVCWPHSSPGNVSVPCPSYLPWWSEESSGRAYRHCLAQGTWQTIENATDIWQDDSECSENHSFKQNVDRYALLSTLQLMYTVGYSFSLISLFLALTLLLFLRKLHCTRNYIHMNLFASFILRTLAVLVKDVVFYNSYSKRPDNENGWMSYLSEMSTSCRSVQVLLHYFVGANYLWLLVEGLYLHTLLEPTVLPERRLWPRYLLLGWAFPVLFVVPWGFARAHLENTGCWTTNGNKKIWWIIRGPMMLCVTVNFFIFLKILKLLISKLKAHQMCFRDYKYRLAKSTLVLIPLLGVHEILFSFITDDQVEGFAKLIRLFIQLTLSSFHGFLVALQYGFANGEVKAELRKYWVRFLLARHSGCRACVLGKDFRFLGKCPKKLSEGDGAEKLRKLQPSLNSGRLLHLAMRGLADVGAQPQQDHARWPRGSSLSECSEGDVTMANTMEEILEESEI
Kind of series: cAMP expression assay in HEK 293E clonal cell line expressing mutated human GLP-2R. Type of series: cell-based. Conditions: Table 2; mimetibodies with Pro substitution; read-out: EC50. The source says: To achieve this goal, a clonal cell line expressing a mutated human GLP-2R was generated by transfecting HEK 293E cells. The mutated human GLP-2R differs from the wild-type human GLP-2R (SEQ ID NO: 35) at three amino acid positions within the C-terminal intracellular region (SEQ ID NO: 36).
The cAMP expression was quantitated using the cAMP Direct Screen System (Cat. No. CSD 200, Applied Biosystems, Bedford, Mass.).
This assay was based on the cAMP Direct Screen System from Applied Biosystems utilizing a cell line expressing mutated huGLP-2R in HEK 293E cells. Peptide at concentrations ranging from 0.01 nM to 1.0 uM in PBS with 0.5% BSA was added to ˜50,000 cells suspended in 96-well plates. After a 30-minute incubation at 37° C., Lysis Buffer followed by luminescence reagents (Applied Biosystems) was added according to the manufacturers' procedures (Applied Biosystems Luminescence protocol: cAMP-Screen Direct System). Luminescence was quantitated using a TopCount liquid scintillation analyzer (PerkinElmer), and data was processed using Softmax software (Molecular Devices Corporation).

A short description of series [8]: Incubation with U937 cell lysate, SDS-PAGE (proteolysis resistance). The series is classed as in vitro ADME. To be noted: 0, 12, 24 hours; in comparison with A2G GLP-2 mimetibody (SEQ ID NO: 5); FIG. 1. As to the method:
The purified Pro substitution variants were incubated with U937 cell lysate in the presence of CompleteMini protease inhibitor tablets (Cat. No. 1 836 153, Roche Applied Science, Indianapolis, Ind.) for 0, 12, or 24 hours. Afterwards, GLP-2 mimetibody variants were purified using Protein A beads and resolved on a SDS-PAGE gel.

Series [9] deals with T2, mutated human GLP-2R (human, UniProt O95838 1-553).
T2 chain: T1 sequence (O95838 1-553 G511A/E512D/L513V)
Kind of series: cell-based or functional assay.

In series [10] the target is T2, mutated human GLP-2R. Briefly: cell-based or functional assay.
Series [11] concerns the molecule itself. Kind of series: SEC-SLS, self-association in PBS pH 7.5.
Series [12] concerns the molecule itself. Briefly: SEC-SLS, self-association at 1 mg/ml in PBS pH 7.5. The procedure:
as §1

Series [13] is described as follows: SEC-SLS analysis of mimetibodies (monomer/dimer). The series is classed as physicochemical. To be noted: purified from HEK 293E/HEK 293 expression.

For `CC[C@H](C)[C@H](NC(=O)[C@H](Cc1ccccc1)NC(=O)[C@H](CC(=O)O)NC(=O)[C@H](CCCNC(=N)N)NC(=O)[C@H](C)NC(=O)[C@H](C)NC(=O)[C@H](CC(C)C)NC(=O)[C@H](CC(N)=O)NC(=O)[C@H](CC(=O)O)NC(=O)[C@H](CC(C)C)NC(=O)[C@@H](NC(=O)[C@@H](NC(=O)[C@H](CC(N)=O)NC(=O)[C@H](CCSC)NC(=O)[C@H](CCC(=O)O)NC(=O)[C@H](CC(=O)O)NC(=O)[C@H](CO)NC(=O)[C@H](Cc1ccccc1)NC(=O)[C@H](CO)NC(=O)CNC(=O)[C@H](CC(=O)O)NC(=O)CNC(=O)[C@@H](N)Cc1c[nH]cn1)[C@@H](C)O)[C@@H](C)CC)C(=O)N[C@@H](CC(N)=O)C(=O)N[C@@H](Cc1c[nH]c2ccccc12)C(=O)N[C@@H](CC(C)C)C(=O)N[C@H](C(=O)N[C@@H](CCC(N)=O)C(=O)N[C@H](C(=O)N[C@@H](CCCCN)C(=O)N[C@H](C(=O)N[C@H](C(=O)N[C@@H](CC(=O)O)C(=O)O)[C@@H](C)O)[C@@H](C)CC)[C@@H](C)O)[C@@H](C)CC` [teduglutide], the half-life entry in series [1] is on record as “less than 30 minutes”.

As for `CC[C@H](C)[C@H](NC(=O)[C@H](Cc1ccccc1)NC(=O)[C@H](CC(=O)O)NC(=O)[C@H](CCCNC(=N)N)NC(=O)[C@H](C)NC(=O)[C@H](C)NC(=O)[C@H](CC(C)C)NC(=O)[C@H](CC(N)=O)NC(=O)[C@H](CC(=O)O)NC(=O)[C@H](CC(C)C)NC(=O)[C@@H](NC(=O)[C@@H](NC(=O)[C@H](CC(N)=O)NC(=O)[C@H](CCSC)NC(=O)[C@H](CCC(=O)O)NC(=O)[C@H](CC(=O)O)NC(=O)[C@H](CO)NC(=O)[C@H](Cc1ccccc1)NC(=O)[C@H](CO)NC(=O)CNC(=O)[C@H](CC(=O)O)NC(=O)CNC(=O)[C@@H](N)Cc1c[nH]cn1)[C@@H](C)O)[C@@H](C)CC)C(=O)N[C@@H](CC(N)=O)C(=O)N[C@@H](Cc1c[nH]c2ccccc12)C(=O)N[C@@H](CC(C)C)C(=O)N[C@H](C(=O)N[C@@H](CCC(N)=O)C(=O)N[C@H](C(=O)N[C@@H](CCCCN)C(=O)N[C@H](C(=O)N[C@H](C(=O)N[C@@H](CC(=O)O)C(=O)O)[C@@H](C)O)[C@@H](C)CC)[C@@H](C)O)[C@@H](C)CC` [SEQ ID NO: 3], the “increase in mucosal wet weight” value in [2] was “statistically significant increase”. Also, the “SEC-SLS elution / self-association state” value in [3] is “overlapping dimer and monomer peaks”. Also, in series [4], the “Helix (percentage of helical structure)” value was determined as 20.7% and the “Random coil (percentage)” value amounted to 37.1%. Besides, in series [5], the “TFE required for helical transformation (helical propensity)” value is reported as around 16 % TFE. Further, the “upper gastrointestinal transit (% small intestine traveled by carmine dye front)” value in [6] (listed as A2G-GLP-2) is listed as “acceleration of upper gastrointestinal transit”. Further, the “upper gastrointestinal transit (% small intestine traveled by carmine dye front)” value in [6] (listed as A2G-GLP-2 peptide) is “significant acceleration of intestinal transit”.

For “SEQ ID NO: 44: GLP-2 mimetibody Pro substitution variant; core HGDGSFSDEMNTILDNLAARDFINWLIQTKITDGSGGGSGALVAVSPESKYGPPCPPCP (Mimetibody)”, in [7], the EC50 amounted to 7.7 nM. In addition, in series [8], the “degradation after incubation with U937 cell lysate” value was “less degradation”.

On to “SEQ ID NO: 43: GLP-2 mimetibody Pro substitution variant; core HGDGSFSDEMNTILDNLAARDFINWLIQTKITDGSGGGSGALVAVPSESKYGPPCPPCP (Mimetibody)”, for which, in [7], the EC50 was found to be 4.8 nM. Besides, in series [8], the “degradation after incubation with U937 cell lysate” value is reported as “less degradation”.

B1: GLP-2(A2G, L17Q) (peptide)
peptide: HGDGSFSDEMNTILDNQAARDFINWLIQTKITD
notes: Synthetic analog of human GLP-2, >95% purity; also called GLP-2(A2G, L17Q) peptide
Consider B1, for which the “activity in cAMP expression assay, fold less than wild type GLP-2” value in series [9] worked out at 3 fold. The “cAMP in Vitro EC50 values” in series [10] was found to be 5.2 nM. For the same molecule, the binding result in series [11] was “no binding (tested: 1 mg/ml)”.

B2: A2G GLP-2 peptide (peptide)
peptide: B1 peptide with Q17L
notes: Analog of human GLP-2 with Ala2 changed to Gly; also called A2G peptide; GLP-2(A2G)
As for B2, in series [12], the binding result is recorded as “binds”.

B3: SEQ ID NO: 4: A2S GLP-2 mimetibody, IgG4 Hg-CH2-CH3 with S228P and P234A/L235A (protein)
chain: HSDGSFSDEMNTILDNLAARDFINWLIQTKITDGSGGGSGTLVTVSSESKYGPPCPPCPAPEAAGGPSVFLFPPKPDTLMISRTPEVTCVVVDVSQEDPEVQFNWYVDGVEVHNAKTKPREEQFNSTYRVVSVLTVLHQDWLNGKEYKCKVSNKGLPSSIEKTISKAKGQPREPQVYTLPPSQEEMTKNQVSLTCLVKGFYPSDIAVEWESNGQPENNYKTTPPVLDSDGSFFLYSRLTVDKSRWQEGNVFSCSVMHEALHNHYTQKSLSLSLGK
modifications: Mimetibody
Take B3: the “SEC-SLS association state of mimetibody” value in series [13] is on record as “dimer”.
